From the RNAGym collection of RNA variant scans (doi:10.7554/elife.80360)

B1: HDV Ribozyme (parent)
chain: GGCCGGCAUGGUCCCAGCCUCCUCGCUGGCGCCGGCUGGGCAACAUUCCGAGGGGACCGUCCCCUCGGUAAUGGCGAAUGGGACCCA

Variants of: B1
Assay: self-cleavage, relative activity (ratio to wild type); higher = more cleavage; co-transcriptional

Variant	self-cleavage
GGCCGGCAUGGUCCCAGCCUCCUCGCUGGCGCCGGCUGGGCAACAUUCCGAGGGGACCGUCCCCUCGCUAAUGGCCAAUGGGACCCA [G68C G76C]	1.03
GGCCGGCAUGGUCCCAGCCUCCUCGCUGGCGCCGGCUGGGCAACAUUCCGAGGGGACCGUCCCCUCGCUAAUGGCUAAUGGGACCCA [G68C G76U]	1.23
GGCCGGCAUGGUCCCAGCCUCCUCGCUGGCGCCGGCUGGGCAACAUUCCGAGGGGACCGUCCCCUCGCUAAUGGCGAAUGGGACCGA [G68C C86G]	1.07
GGCCGGCAUGGUCCCAGCCUCCUCGCUGGCGCCGGCUGGGCAACAUUCCGAGGGGACCGUCCCCUCGCUAAUGGCGAAUGGGACCAA [G68C C86A]	1.1
GGCCGGCAUGGUCCCAGCCUCCUCGCUGGCGCCGGCUGGGCAACAUUCCGAGGGGACCGUCCCCUCGCUAAUGGCGAAUGGGACCUA [G68C C86U]	0.997
GGCCGGCAUGGUCCCAGCCUCCUCGCUGGCGCCGGCUGGGCAACAUUCCGAGGGGACCGUCCCCUCGCUAAUGGCGAAUGGGACGCA [G68C C85G]	0.733
GGCCGGCAUGGUCCCAGCCUCCUCGCUGGCGCCGGCUGGGCAACAUUCCGAGGGGACCGUCCCCUCGCUAAUGGCGAAUGGGAGCCA [G68C C84G]	0.639
GGCCGGCAUGGUCCCAGCCUCCUCGCUGGCGCCGGCUGGGCAACAUUCCGAGGGGACCGUCCCCUCGCUAAUGGCGAAUGGGAACCA [G68C C84A]	1.06
GGCCGGCAUGGUCCCAGCCUCCUCGCUGGCGCCGGCUGGGCAACAUUCCGAGGGGACCGUCCCCUCGAAAAUGGCGAAUGGGACCCA [G68A U69A]	1
GGCCGGCAUGGUCCCAGCCUCCUCGCUGGCGCCGGCUGGGCAACAUUCCGAGGGGACCGUCCCCUCGCUAUUGGCGAAUGGGACCCA [G68C A71U]	0.68
GGCCGGCAUGGUCCCAGCCUCCUCGCUGGCGCCGGCUGGGCAACAUUCCGAGGGGACCGUCCCCUCGCUAAUGCCGAAUGGGACCCA [G68C G74C]	0.181
GGCCGGCAUGGUCCCAGCCUCCUCGCUGGCGCCGGCUGGGCAACAUUCCGAGGGGACCGUCCCCUCGCUCAUGGCGAAUGGGACCCA [G68C A70C]	0.63
GGCCGGCAUGGUCCCAGCCUCCUCGCUGGCGCCGGCUGGGCAACAUUCCGAGGGGACCGUCCCCUCGCUGAUGGCGAAUGGGACCCA [G68C A70G]	0.639
GGCCGGCAUGGUCCCAGCCUCCUCGCUGGCGCCGGCUGGGCAACAUUCCGAGGGGACCGUCCCCUCGCUAAUGGGGAAUGGGACCCA [G68C C75G]	0.128
GGCCGGCAUGGUCCCAGCCUCCUCGCUGGCGCCGGCUGGGCAACAUUCCGAGGGGACCGUCCCCUCGCUAAUGGAGAAUGGGACCCA [G68C C75A]	0.0346
GGCCGGCAUGGUCCCAGCCUCCUCGCUGGCGCCGGCUGGGCAACAUUCCGAGGGGACCGUCCCCUCGCUAAUUGCGAAUGGGACCCA [G68C G73U]	0.158

Variant	self-cleavage
GGCCGGCAUGGUCCCAGCCUCCUCGCUGGCGCCGGCUGGGCAACAUUCCGAGGGGACCGUCCCCUCGCUAAUCGCGAAUGGGACCCA [G68C G73C]	0.0511
GGCCGGCAUGGUCCCAGCCUCCUCGCUGGCGCCGGCUGGGCAACAUUCCGAGGGGACCGUCCCCUCGCUAAUAGCGAAUGGGACCCA [G68C G73A]	0.193
GGCCGGCAUGGUCCCAGCCUCCUCGCUGGCGCCGGCUGGGCAACAUUCCGAGGGGACCGUCCCCUCGAUAAUGGCGAACGGGACCCA [G68A U79C]	0.233
GGCCGGCAUGGUCCCAGCCUCCUCGCUGGCGCCGGCUGGGCAACAUUCCGAGGGGACCGUCCCCUCGAUAAUGGCGAAUGAGACCCA [G68A G81A]	0.389
GGCCGGCAUGGUCCCAGCCUCCUCGCUGGCGCCGGCUGGGCAACAUUCCGAGGGGACCGUCCCCUCGAUAAUGGCGAAUGCGACCCA [G68A G81C]	0.175
GGCCGGCAUGGUCCCAGCCUCCUCGCUGGCGCCGGCUGGGCAACAUUCCGAGGGGACCGUCCCCUCGCUAAUGGCGAAUGGGACCCC [G68C A87C]	0.73
GGCCGGCAUGGUCCCAGCCUCCUCGCUGGCGCCGGCUGGGCAACAUUCCGAGGGGACCGUCCCCUCGCUAAUGGCGAAUGGGACCCG [G68C A87G]	0.948
GGCCGGCAUGGUCCCAGCCUCCUCGCUGGCGCCGGCUGGGCAACAUUCCGAGGGGACCGUCCCCUCGAUAAGGGCGAAUGGGACCCA [G68A U72G]	0.312
GGCCGGCAUGGUCCCAGCCUCCUCGCUGGCGCCGGCUGGGCAACAUUCCGAGGGGACCGUCCCCUCGAUAACGGCGAAUGGGACCCA [G68A U72C]	0.594
GGCCGGCAUGGUCCCAGCCUCCUCGCUGGCGCCGGCUGGGCAACAUUCCGAGGGGACCGUCCCCUCGAUAAUGGCGAAUGGCACCCA [G68A G82C]	0.153
GGCCGGCAUGGUCCCAGCCUCCUCGCUGGCGCCGGCUGGGCAACAUUCCGAGGGGACCGUCCCCUCGCUAAUGGCGAUUGGGACCCA [G68C A78U]	0.35
GGCCGGCAUGGUCCCAGCCUCCUCGCUGGCGCCGGCUGGGCAACAUUCCGAGGGGACCGUCCCCUCGCUAAUGGCGAAUCGGACCCA [G68C G80C]	0.208
GGCCGGCAUGGUCCCAGCCUCCUCGCUGGCGCCGGCUGGGCAACAUUCCGAGGGGACCGUCCCCUCGCUAAUGGCGAAUUGGACCCA [G68C G80U]	0.322
GGCCGGCAUGGUCCCAGCCUCCUCGCUGGCGCCGGCUGGGCAACAUUCCGAGGGGACCGUCCCCUCGCUAAUGGCGGAUGGGACCCA [G68C A77G]	0.554
GGCCGGCAUGGUCCCAGCCUCCUCGCUGGCGCCGGCUGGGCAACAUUCCGAGGGGACCGUCCCCUCGCUAAUGGCGUAUGGGACCCA [G68C A77U]	0.755
GGCCGGCAUGGUCCCAGCCUCCUCGCUGGCGCCGGCUGGGCAACAUUCCGAGGGGACCGUCCCCUCGCUAAUGGCGAAUGGGGCCCA [G68C A83G]	0.356
